Experimental data published in US20230416396A1 (Regeneron, published 2023).
Like-named read-outs stand apart in the source and are kept apart here.

How the values were obtained:
[1] = molecular target: T1, human 4-1BB expressed with a C-terminal myc-myc-hexahistidine tag (human, UniProt Q07011 24-186); experiment: SPR Biacore 8k, antibody captured by anti-human Fc, h4-1BB.mmH as analyte, 25 C
T1 construct: also called h4-1BB.mmH; REGN3584; not shown: C-terminal myc-myc-hexahistidine tag
Experimental: (§1) Equilibrium dissociation constants (KD values) for human 4-1BB expressed with a C-terminal myc-myc-hexahistidine tag (h4-1BB.mmH, REGN3584) or human 4-1BB expressed with a C-terminal murine Fc tag (h4-1BB.mFc, REGN3585) binding to purified anti-CD38×4-1BB 1+2 antibodies were determined using a real-time surface plasmon resonance biosensor using a Biacore 8k instrument. The CM5 Biacore sensor surface was derivatized by amine coupling with a monoclonal mouse anti-human Fc antibody (REGN2567). All Biacore binding studies were performed in a buffer composed of 0.01M HEPES pH 7.4, 0.15M NaCl, 3 mM EDTA, 0.05% v/v Surfactant P20 (HBS-EP running buffer). […] Antibody-reagent association was monitored for 5 minutes while dissociation in HBS-EP running buffer was monitored for 10 minutes. At the end of each cycle, the anti-CD38×4-1BB 1+2 antibody capture surface was regenerated using a 10 second injection of 20 mM phosphoric acid. All binding kinetics experiments were performed at 25° C.
(§2) Kinetic association (kₐ) and dissociation (kd) rate constants were determined by fitting the real-time sensorgrams to a 1:1 binding model using Cytiva Insight curve fitting software. Binding dissociation equilibrium constants (KD) and dissociative half-lives (t/2) were calculated from the kinetic rate constants as: […]

human 4-1BB on cells [2] = molecular target: T2, human 4-1BB on cells (human, UniProt Q07011 24-255); experiment: cell-based or functional assay
[3] = molecular target: T3, human CD38 endogenously expressed on MOLP8 cells (human, UniProt P28907 1-300); experiment: flow cytometry on MOLP8 cells (endogenous hCD38), APC anti-human secondary
T3 construct: whole, on cells; also called hCD38
Experimental: (§3) The ability of the multispecific antigen binding molecules to bind cells was assessed using flow cytometry. Cell lines were chosen to determine the ability of both the anti-CD38 and anti-4-1BB arms to bind their targets. […] Binding was detected by using a labeled secondary antibody and measuring fluorescence on a flow cytometer.
HEK293 cells were lifted with trypsin, washed and resuspend in stain buffer (2% FBS in PBS). MOLP8 cells were washed and resuspended in stain buffer. Cells were added to wells of a 96 well V-bottom plate (3×10⁵ cells/well). A 1:4, 9-point, dose titration of test antibodies was diluted in stain buffer and added to cells to a final concentration ranging from 610 fM to 10 nM (a “no antibody” control was included as the ninth point (153fM), labeled as “secondary only”). Cells and antibodies were incubated for 30 min on ice and then washed in stain buffer. Cells were resuspended in 2 ug/ml allophycocyanin (APC) conjugated goat-anti human secondary antibody and incubated for 30 min on ice. Cells were then washed and resuspended in viability dye (according to the manufacturer's protocol) and incubated for 30 min on ice. Cells were then washed with stain buffer and resuspended in 2% PFA for 30 min on ice. After washing, cells were filtered and analyzed by flow cytometry to determine the geometric mean fluorescence intensity (gMFI), which was subsequently plotted using GraphPad Prism software. EC₅₀ values of the antibodies were determined from a 4-parameter logistic equation over a 9-point dose response curve (including secondary only control, representing the ninth point).

human 4-1BB on cells [4] = molecular target: T2, human 4-1BB on cells; experiment: cell-based or functional assay; remark: listed apart in the source
human 4-1BB on cells [5] = molecular target: T2, human 4-1BB on cells; experiment: cell-based or functional assay; remark: listed apart in the source
[6] = molecular target: T4, human 4-1BB expressed with a C-terminal murine Fc tag (human, UniProt Q07011 24-186); experiment: SPR Biacore 8k, antibody captured by anti-human Fc, h4-1BB.mFc as analyte, 25 C
T4 construct: also called h4-1BB.mFc; REGN3585; not shown: C-terminal murine Fc tag
Experimental: as §1, §2

human 4-1BB on cells [7] = molecular target: T2, human 4-1BB on cells; experiment: cell-based or functional assay; remark: listed apart in the source
human 4-1BB on cells [8] = molecular target: T2, human 4-1BB on cells; experiment: flow cytometry on HEK293/h4-1BB cells, APC anti-human secondary
Experimental: as §3
HEK293 and HEK293/4-1BB cells were lifted with trypsin, washed and resuspended in stain buffer (2% FBS in PBS) and added to wells of a 96 well V-bottom plate (3×10⁵ cells/well). A 1:5, 9-point, dose titration of test antibodies was diluted in stain buffer and added to cells to a final concentration ranging from 1.3 pM to 100 nM (a “no antibody” control was included as the ninth point ([…]) labeled as “secondary only”). Cells and antibodies were incubated for 30 min on ice and then washed in stain buffer. Cells were resuspended in 2 ug/ml allophycocyanin (APC) conjugated goat-anti human secondary antibody and incubated for 30 min on ice. Cells were then washed and resuspended in viability dye (according to the manufacturer's protocol) and incubated for 30 min on ice. Cells were then washed with stain buffer and resuspended in 2% PFA for 30 min on ice. After washing, cells were filtered and analyzed by flow cytometry to determine the geometric mean fluorescence intensity (gMFI), which was subsequently plotted using GraphPad Prism software. EC₅₀ values of the antibodies were determined from a 4-parameter logistic equation over a 9-point dose response curve (including secondary only control).

T2 sequence (Q07011 24-255): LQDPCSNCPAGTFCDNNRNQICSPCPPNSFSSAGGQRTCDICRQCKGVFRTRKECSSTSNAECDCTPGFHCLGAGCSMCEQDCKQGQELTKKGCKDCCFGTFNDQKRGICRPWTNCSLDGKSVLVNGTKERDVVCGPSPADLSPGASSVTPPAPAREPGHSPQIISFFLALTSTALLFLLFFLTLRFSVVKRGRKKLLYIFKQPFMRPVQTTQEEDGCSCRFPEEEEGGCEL
T4 sequence (Q07011 24-186 limits assumed): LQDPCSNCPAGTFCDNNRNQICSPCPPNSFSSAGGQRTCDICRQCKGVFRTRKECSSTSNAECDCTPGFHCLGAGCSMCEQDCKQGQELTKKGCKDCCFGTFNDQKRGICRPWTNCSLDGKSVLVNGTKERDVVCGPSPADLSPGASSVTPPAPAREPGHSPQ
T1 sequence (Q07011 24-186 limits assumed): as above

B1: REGN7647 (bispecific antibody, human IgG4 S228P, kappa)
heavy 1: EVQLVESGGGLVQPGRSLRLSCGASGFTFDDYVMHWVRQIPGKGLEWVAGISWNSGSIGYADSVKGRFTISRDNAKNSLYLQMNSLRAEDTALYFCAKDHIDPYSSSLYYYYGMDVWGQGTTVTVSSASTKGPSVFPLAPCSRSTSESTAALGCLVKDYFPEPVTVSWNSGALTSGVHTFPAVLQSSGLYSLSSVVTVPSSSLGTKTYTCNVDHKPSNTKVDKRVESKYGPPGGGGSGGGGSGGGGSEVQLVESGGGLVQPGRSLRLSCGASGFTFDDYVMHWVRQIPGKGLEWVAGISWNSGSIGYADSVKGRFTISRDNAKNSLYLQMNSLRAEDTALYFCAKDHIDPYSSSLYYYYGMDVWGQGTTVTVSSASTKGPSVFPLAPCSRSTSESTAALGCLVKDYFPEPVTVSWNSGALTSGVHTFPAVLQSSGLYSLSSVVTVPSSSLGTKTYTCNVDHKPSNTKVDKRVESKYGPPCPPCPAPPVAGPSVFLFPPKPKDTLMISRTPEVTCVVVDVSQEDPEVQFNWYVDGVEVHNAKTKPREEQFNSTYRVVSVLTVLHQDWLNGKEYKCKVSNKGLPSSIEKTISKAKGQPREPQVYTLPPSQEEMTKNQVSLTCLVKGFYPSDIAVEWESNGQPENNYKTTPPVLDSDGSFFLYSRLTVDKSRWQEGNVFSCSVMHEALHNRFTQKSLSLSPGK
heavy 2: EVQLVESGGGLVQPGRSLRLSCAASGFTFDDYAMHWVRQAPGKGLEWVSGISWKSDNIGYADSVKGRFTISRDNAKNSLYLQMNSLRAEDTALYYCAKALGGWKFDYYYGMDVWGQGTTVTVSSASTKGPSVFPLAPCSRSTSESTAALGCLVKDYFPEPVTVSWNSGALTSGVHTFPAVLQSSGLYSLSSVVTVPSSSLGTKTYTCNVDHKPSNTKVDKRVESKYGPPCPPCPAPPVAGPSVFLFPPKPKDTLMISRTPEVTCVVVDVSQEDPEVQFNWYVDGVEVHNAKTKPREEQFNSTYRVVSVLTVLHQDWLNGKEYKCKVSNKGLPSSIEKTISKAKGQPREPQVYTLPPSQEEMTKNQVSLTCLVKGFYPSDIAVEWESNGQPENNYKTTPPVLDSDGSFFLYSRLTVDKSRWQEGNVFSCSVMHEALHNHYTQKSLSLSLGK
light: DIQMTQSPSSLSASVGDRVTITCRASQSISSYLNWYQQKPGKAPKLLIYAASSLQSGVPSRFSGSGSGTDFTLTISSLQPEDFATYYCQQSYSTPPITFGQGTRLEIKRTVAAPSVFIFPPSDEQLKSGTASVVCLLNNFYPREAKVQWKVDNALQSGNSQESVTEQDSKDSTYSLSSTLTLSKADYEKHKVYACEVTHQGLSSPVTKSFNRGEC
notes: 1+2 format, hIgG4P-PVA; The linker between the two 4-1BB Fabs is (G4S)3v15; also called CD38x4-1BB (1 + 2), (G4S)3v15; 26812P2 x 35333P2 (IN) + 35333P2 (OUT)
**Q.** With B1 as the binder, how does the “100 nM h4-1BB.mmH Bind (RU)” value [1] read?
**A.** 86.1 RU

**Q.** And the Kd [1]?
**A.** 16.5 nM

**Q.** And the koff [1]?
**A.** 0.00533 s⁻¹

**Q.** What about the kon [1] of the same binder?
**A.** 324000 M⁻¹ s⁻¹

**Q.** And the t½ [1]?
**A.** 2.2 min

**Q.** What about the “EC50 of IL-2 release, T cells + HEK293/CD20/CD38 + REGN1979” value (human 4-1BB on cells [2]) of the same binder?
**A.** 0.0058 nM

**Q.** What about the “EC50 of IL-2 release, T cells + MOLP-8 + IsoC” value (human 4-1BB on cells [2]) of the same binder?
**A.** 0.00221 nM

**Q.** And the “EC50 of IL-2 release, T cells + MOLP-8 + REGN5458” value (human 4-1BB on cells [2])?
**A.** 0.0231 nM

**Q.** And the “MAX IL-2 release, T cells + HEK293/CD20 + REGN1979” value (human 4-1BB on cells [2])?
**A.** 199 pg/mL

**Q.** What about the “MAX IL-2 release, T cells + HEK293/CD20/CD38 + IsoC” value (human 4-1BB on cells [2]) of the same binder?
**A.** 18 pg/mL

**Q.** What about the “MAX IL-2 release, T cells + HEK293/CD20/CD38 + REGN1979” value (human 4-1BB on cells [2]) of the same binder?
**A.** 2850 pg/mL

**Q.** And the “MAX IL-2 release, T cells + MOLP-8 + IsoC” value (human 4-1BB on cells [2])?
**A.** 331 pg/mL

**Q.** And the “MAX IL-2 release, T cells + MOLP-8 + REGN5458” value (human 4-1BB on cells [2])?
**A.** 692 pg/mL

**Q.** What about the “MAX gMFI” value [3] of the same binder?
**A.** 120000 gMFI

**Q.** What about the “EC50 of IL-2 release, T cells + HEK293/CD20/CD38 + REGN2281” value (human 4-1BB on cells [4]) of the same binder?
**A.** 0.0535 nM

**Q.** And the “EC50 of IL-2 release, T cells + MOLP-8 + REGN5458” value (human 4-1BB on cells [4])?
**A.** 0.216 nM

**Q.** And the “EC50 of IL-2 release, T cells + NALM-6” value (human 4-1BB on cells [4])?
**A.** 0.0485 nM

**Q.** And the “MAX IL-2 release, T cells + HEK293/CD20 + REGN2281” value (human 4-1BB on cells [4])?
**A.** 61 pg/mL

**Q.** And the “MAX IL-2 release, T cells + HEK293/CD20/CD38 + REGN2281” value (human 4-1BB on cells [4])?
**A.** 781 pg/mL

**Q.** What about the “MAX IL-2 release, T cells + MOLP-8 + IsoC” value (human 4-1BB on cells [4]) of the same binder?
**A.** 73 pg/mL

**Q.** And the “MAX IL-2 release, T cells + MOLP-8 + REGN5458” value (human 4-1BB on cells [4])?
**A.** 66 pg/mL

**Q.** And the “MAX IL-2 release, T cells + NALM-6” value (human 4-1BB on cells [4])?
**A.** 192 pg/mL

**Q.** And the “EC50 of IL-2 release, T cells + NALM6 + Cemiplimab” value (human 4-1BB on cells [5])?
**A.** 0.0477 nM

**Q.** What about the “EC50 of IL-2 release, T cells + NALM6 + IgG4P” value (human 4-1BB on cells [5]) of the same binder?
**A.** 0.0579 nM

**Q.** What about the “EC50 of IL-2 release, T cells + NALM6/PD-L1 + Cemiplimab” value (human 4-1BB on cells [5]) of the same binder?
**A.** 0.0911 nM

**Q.** And the “EC50 of IL-2 release, T cells + NALM6/PD-L1 + IgG4P” value (human 4-1BB on cells [5])?
**A.** 0.117 nM

**Q.** What about the “100 nM h4-1BB.mFc Bind (RU)” value [6] of the same binder?
**A.** 224 RU

**Q.** What about the Kd [6] of the same binder?
**A.** 1.18 nM

**Q.** What about the koff [6] of the same binder?
**A.** 0.000231 s⁻¹

**Q.** What about the kon [6] of the same binder?
**A.** 195000 M⁻¹ s⁻¹

**Q.** What about the t½ [6] of the same binder?
**A.** 50 min

**Q.** What about the “EC50 of luciferase activity, HEK293/NFkB-Luc/h4-1BB reporter + OPM2” value (human 4-1BB on cells [7]) of the same binder?
**A.** 0.00735 nM

**Q.** And the “MAX luciferase activity, HEK293/NFkB-Luc/h4-1BB reporter + HEK293/CD20” value (human 4-1BB on cells [7])?
**A.** 1.2e+06 RLU

**Q.** What about the “MAX luciferase activity, HEK293/NFkB-Luc/h4-1BB reporter + HEK293/CD20/CD38” value (human 4-1BB on cells [7]) of the same binder?
**A.** 2.4e+06 RLU

**Q.** And the “MAX luciferase activity, HEK293/NFkB-Luc/h4-1BB reporter + MOLP-8” value (human 4-1BB on cells [7])?
**A.** 2.3e+06 RLU

**Q.** And the “MAX luciferase activity, HEK293/NFkB-Luc/h4-1BB reporter + OPM2” value (human 4-1BB on cells [7])?
**A.** 1.9e+06 RLU

**Q.** And the EC50 (human 4-1BB on cells [8])?
**A.** 0.608 nM

**Q.** What about the “MAX gMFI” value (human 4-1BB on cells [8]) of the same binder?
**A.** 1.4e+06 gMFI
